# Measurements as given in US20080227700A1, “Compositions and Methods for Treatment of Protein Misfolding and Protein Aggregation Diseases” (priority 2004, published 2008).
# Experiments:
# βL crystallin = assay: Chaperone assay, thermal aggregation of βL crystallin; format: biochemical; conditions: light scattering at λ=340 nm; 1:10 target protein:peptide; comparison among five peptides
# Protocol: Chaperone Assays. Chaperone assays of the five peptides were performed using previously established methods with minor modifications. Muchowski et al., J Mol Biol 289: 397-411, 1999. A 1:1 monomeric molar ratio of chaperone: target protein was determined to be the optimum ratio and all subsequent chaperone assays of the β3 mutants were performed in triplicate and at a 1:1 monomeric molar ratio of chaperone: target protein in a 96-well ELISA micro-titer plate. […] of the chaperone and βL crystallin were mixed in a total volume of 200 μL buffer (5 mM PBS, pH 7.0). Light scattering at λ=340 nm was measured using a Multiskan MCC/340 plate reader before heating (time=0). After the first reading, the plate was heated at 50° C. and readings were taken at fifteen minute intervals for one hour.
# The ability of the peptides to suppress the thermal aggregation of βL crystallin was measured spectrophotometrically as light scattering at λ=340 nm from solutions containing 1:10 monomeric molar ratio of target protein: peptide.
# γD crystallin [1] = biological target: T1, γD crystallin (Homo sapiens, UniProt P07320); assay: γD crystallin ThioflavinT fluorescence (fibrillization of γD crystallin); format: biochemical; conditions: 1:1 γD crystallin:peptide; for effect on the fibrillization of γD crystallin: ThioflavinT fluorescence after 72 hrs, comparison among αB crystallin and five peptides
# T1 sequence (P07320 1-174): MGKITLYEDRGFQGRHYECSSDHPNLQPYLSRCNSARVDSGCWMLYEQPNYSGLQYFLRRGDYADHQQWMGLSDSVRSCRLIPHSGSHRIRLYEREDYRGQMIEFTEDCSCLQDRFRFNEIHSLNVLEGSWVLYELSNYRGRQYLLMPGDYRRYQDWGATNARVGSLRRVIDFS
# Protocol: γD crystallin Thioflaviin T fluorescence. γD crystallin fibrils were formed in a similar way to that of γ crystalline. Meehan et al., J Biol Chem 279: 3413-3419, 2004. Peptides were dissolved to […] IN tfe AND DILUTED to 0.91 mM stock solutions in 10% TFE, pH 2.0.
# 3.5 mg of ThioflavinT was dissolved in 100 μL of 50 mM Glycine pH 8.5. A stock solution of 1 mg/ml (0.22 mM) Aβ was prepared. 20 μl Aβ, 5 μl chaperone, 2 μl ThioflavinT was mixed with 73 μL 10% TFE, pH 2.0. Fluorescence was read using a Beckman Coultier DTX 880 multimode detector. Samples were heated at 50° C. for 72 hours and fluorescence was read again.
# The fibrillization of γD crystallin was measured as fluorescence of the fluorescent dye ThioflavinT from solutions containing 1:1 monomeric molar ratio of γD crystallin:peptide. In the absence of fibrils ThioflavinT had little or no fluorescence. The fluorescence of the ThioflavinT bound to γD crystallin fibrils in the absence of any other molecule after 72 hrs was set to 100%. […] Fibril formation=ΔfluorescenceγD crystallin (with chaperone)*100/ΔfluorescenceγD crystallin (without chaperone).
# [2] = biological target: T2, porcine citrate synthase (CS) (Sus scrofa, UniProt P00889); assay: Protein pin array interaction with citrate synthase; format: binding; conditions: CS as target protein, unheated and pre-heated
# T2 construct: purchased
# T2 sequence (P00889 28-464): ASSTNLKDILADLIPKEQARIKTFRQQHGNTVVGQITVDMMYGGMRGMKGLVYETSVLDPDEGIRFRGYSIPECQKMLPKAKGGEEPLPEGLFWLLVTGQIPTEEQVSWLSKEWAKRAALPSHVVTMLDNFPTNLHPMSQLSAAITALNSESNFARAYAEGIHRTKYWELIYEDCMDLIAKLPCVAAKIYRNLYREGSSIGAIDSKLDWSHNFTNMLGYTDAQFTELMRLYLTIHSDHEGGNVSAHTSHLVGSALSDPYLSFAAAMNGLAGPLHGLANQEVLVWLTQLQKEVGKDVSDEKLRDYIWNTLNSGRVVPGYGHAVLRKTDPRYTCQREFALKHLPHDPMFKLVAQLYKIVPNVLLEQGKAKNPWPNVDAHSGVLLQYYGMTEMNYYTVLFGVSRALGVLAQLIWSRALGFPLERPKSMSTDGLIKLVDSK
# Source text: (§1) Synthesis of Pins, binding and detection of peptides binding to ligand proteins. The αB crystallin protein pin array was used to measure the interaction between peptides and chaperone target proteins including bovine βH crystallin, human γD crystallin, equine alcohol dehydrogenase (ADH) and porcine citrate synthase (CS) as described (FIG. 12). Ghosh and Clark, Protein Sci 14: 684-95, 2005.
# (§2) Refer to the methods section for detailed protocols. The absorbance corresponding to the blue coloration in each well was measured at λ=450 nm and plotted against the amino acid sequence of the corresponding peptide in that well (FIGS. 13 and 14). Wells containing peptides that have strong interactions with target proteins are dark blue and wells containing peptides that have weak or no interaction with target proteins are light blue or clear.
# (§3) The purity of the target proteins used in the pin array assays, bovine βH crystallin, human γD crystallin, equine alcohol dehydrogenase (ADH) and porcine citrate synthase (CS) were determined to be >90% by SDS-PAGE. In addition, primary antibodies for each target protein were specific to that target protein and consequently contaminating proteins that may bind to the peptides will not be detected. Eighty-four sequential and overlapping peptide fragments corresponding to residues 1-175 of human αB crystallin were synthesized employing a simultaneous peptide synthesis strategy developed by Geysen, called Multipin Peptide Synthesis (Mimotopes, San Diego, Calif.). Geysen, Southeast Asian J Trop Med Public Health 21: 523-33, 1990; Chin et al., J Org Chem 62: 538-539, 1997. Peptides were immobilized on derivatized polyethylene pins arranged in a microtiter ELISA plate format. Each peptide was eight amino acids in length and consecutive peptides were offset by two amino acids. All peptides were bound covalently to the surface of the plastic pins. The first peptide was […] for human αB crystallin.
# (§4) Ghosh and Clark, Protein Sci 14: 684-95, 2005. […] The intensity of the blue color in the wells was measured at 450 nm using an ELISA plate-reader (BioTek, Winooski, Vt.). The intensity of the blue color (plotted on the X-axis) was a measure of the interaction between αB crystallin peptides (plotted on the Y-axis) and target proteins. To measure the effect of temperature on the interactions between interactive peptides and the target proteins, the target proteins were heated in a water-bath at 45° C. for fifteen minutes prior to use. Pin arrays are unable to differentiate between monomers, dimers or oligomers of target proteins that exist in solution. Instead, pin arrays are very sensitive detectors of interactions between individual peptides and the entire population (monomers, dimers or oligomers) of specific target proteins that may exist in solution under specific conditions. Each target protein was assayed two to five times. A single pin array was used for all experiments and no change in interactions was observed after more than thirty repetitions. The last three peptides of the protein pin array, 163REEKPAVT170, 165EKPAVTAA172, 167PAVTAAPK174, correspond to the epitope (163REEKPAVTAAPKK175) recognized by the primary antibody for human αB crystallin. A positive reaction is observed for these three peptides in the absence of human αB crystallin as the ligand due to direct binding of the anti-human αB crystallin antibody to these three peptides. The loss of efficiency for the pin array was measured using this assay. The loss of efficiency for the pin array was determined to be <5% by after more than 30 assays.
# (§5) The Y-axis lists the amino acid sequences of the 8-mer peptides that are immobilized sequentially in a 96-well format. […]
# γD crystallin [3] = biological target: T1, γD crystallin; assay: Protein pin array interaction with γD crystallin; format: binding; set-up: purchased; conditions: unheated γD crystallin; similar peptide sequences with γD crystallin pre-heated at 45° C. for fifteen minutes
# Source text: as §1, §2, §3, §4
# (§6) The amino acid sequences of each 8-mer human αB crystallin peptide immobilized sequentially on 84 pins in a 96-well ELISA plate format are listed on the Y-axis. […]
# [4] = biological target: T3, equine alcohol dehydrogenase (ADH) (Equus caballus, UniProt P00327); assay: Protein pin array interaction with alcohol dehydrogenase; format: binding; conditions: ADH as ligand, unheated and pre-heated
# T3 construct: purchased
# Source text: as §1, §2, §3, §4, §5
# bovine βH crystallin = assay: Protein pin array interaction with βH crystallin; format: binding; conditions: unheated βH crystallin; similar maxima with βH crystallin pre-heated at 45° C. for fifteen minutes
# Source text: as §1, §2, §3, §4, §6
# beta amyloid = beta amyloid (Homo sapiens, UniProt P05067); assay: αB crystallin protein pin array screened for binding to beta amyloid; conditions: immobilized 8-mer peptide; absorption at 450 nm; assayed 2-5 times
# Source text: αB Crystallin peptides that bind the target protein beta-amyloid were identified by screening an αB crystallin protein pin array, which provides a systematic method for evaluating interactions between peptides corresponding to residues 1-175 of human αB crystallin and selected target proteins in a parallel and simultaneous manner.
# Peptides were synthesized on derivatized polyethylene pins arranged in a microtiter plate format. Each peptide was 8 amino acids in length and consecutive peptides were offset by 2 amino acids. All peptides were covalently bonded to the surface plastic pins. The first immobilized peptide was 1MDIAIHHP8 and the last peptide was 168PAVTAAPK175 for the human αB crystallin.
# After synthesis, the pins were pre-coated at room temperature with 2% Bovine Serum Albumin (BSA), 0.1% Tween-20 and 0.1% Sodium azide in 10 mM phosphate buffered saline pH 7.2 (PBS) for 1 hr, and washed three times for 10 mins each with 10 mM PBS. To screen for binding to the peptides, fixed concentrations of the target protein beta amyloid was dissolved in 10 mM PBS, containing 0.05% Tween-20, added to each well and incubated for 1 hr at room temperature. The pin array was washed three times for 10 mins each with 10 mM PBS, containing 0.05% Tween-20. Monoclonal or polyclonal primary antibodies for the target protein beta amyloid was diluted into PBS buffer, added to each well and incubated for 1 hr at room temperature. Subsequently, the pin array was washed three times for 10 mins each with 10 mM PBS containing 0.05% Tween-20. Anti-rabbit horse-radish peroxidase conjugate secondary antibodies was diluted into PBS buffer, added to each well and incubated for 1 hr at room temperature. The pin array was washed three times for 10 mins each with 10 mM PBS containing 0.05% Tween-20. A chromogenic substrate of horse-radish peroxidase 3,3′,5,5′-Tetramethylbenzidine (TMB) (Pharmingen, San Diego, Calif.) which is colorless was added, and the reaction was carried out for 45 min.
# The reaction was stopped by adding 6N sulfuric acid, which changes the color from blue to yellow. The absorption at 450 nm was measured by an ELISA reader (BioTek, Winooski, Vt.).
# The pin array was regenerated by sonication in a water bath (VWR Aquasonic, West Chester, Pa.) with 100 mM PBS, containing 1% Sodium dodecyl sulfate (SDS) and 0.1% 2-Mercaptoethanol @ 60° C. for 10 mins. Next, the pin array was rinsed three times in deionized water, preheated to 60° C. for 30 secs each time, and shaken in water preheated at 60° C. for 30 min. The pin array was then washed with methanol at 60° C. for 15 secs and air-dried and stored @−20° C. for future use. Each target protein was assayed 2-5 times against the human αB crystallin protein pin array peptides to verify the reproducibility of the results. Peptides numbered 5, 7, 8, 9, 13, 19, 22, 23, 24, 27, 35, 38, 45, 51, 52, 56, 57, 61, 66, 71, 72, and 79 in Table 2 reproducibly tested positive in the protein pin assay.
# Aβ = Aβ (Homo sapiens, UniProt P05067); assay: Aβ ThioflavinT fluorescence (fibrillization of Aβ); format: biochemical; conditions: ThioflavinT; 50° C. for 72 hours; 1:10 Aβ:peptide; no chaperone 1,324,974,048
# Protocol: Aβ Thioflaviin T fluorescence. Aβ fibrils were grown in the presence and absence of αB crystallin and peptides in conditions similar to that previously described for the presence of αB crystallin. Bakthisaran et al., Biochem J, 2005. Peptides were dissolved to 9.1 mM in trifluorethanol (TFE) and diluted to 0.91 mM stock solutions in 50 mM PBS, 100 mM NaCl, pH 7.4. 3.5 mg of ThioflavinT was dissolved in 100 μl of 50 mM Glycine pH 8.5. A stock solution of 1 mg/ml (0.22 mM) Aβ was prepared. 20 μl Aβ, 50 μl chaperone, 2 μl ThioflavinT was mixed with 28 μl 50 mM PBS, 100 mM NaCl, pH 7.4. Fluorescence was read using a Beckman Coultier DTX 880 multimode detector. Samples were heated at 50° C. for 72 hours and fluorescence was read again.
# The fibrillization of Aβ was measured as fluorescence of the fluorescent dye ThioflavinT from solutions containing 1:10 monomeric molar ratio of Aβ:peptide. In the absence of Aβfibrils, ThioflavinT had little or no fluorescence. The fluorescence of the ThioflavinT bound to Aβ fibrils in the absence of any other molecule after 72 hrs was set to 100%. […] Fibril formation=ΔfluorescenceAβ (with chaperone)*100/ΔfluorescenceAβ (without chaperone).
# T3 sequence (P00327 whole entry): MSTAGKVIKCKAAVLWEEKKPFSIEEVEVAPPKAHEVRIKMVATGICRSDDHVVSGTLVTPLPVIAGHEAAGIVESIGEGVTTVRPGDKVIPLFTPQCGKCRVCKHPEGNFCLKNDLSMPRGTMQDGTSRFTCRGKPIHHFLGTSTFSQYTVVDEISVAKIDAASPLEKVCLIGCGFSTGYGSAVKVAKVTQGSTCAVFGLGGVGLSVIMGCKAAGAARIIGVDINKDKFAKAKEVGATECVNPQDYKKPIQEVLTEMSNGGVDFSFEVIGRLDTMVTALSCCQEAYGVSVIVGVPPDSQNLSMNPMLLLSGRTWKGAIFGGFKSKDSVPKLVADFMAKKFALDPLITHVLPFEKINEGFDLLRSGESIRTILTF
substance,measurement,setting,value
ERTIPITRE,effect on the thermal aggregation of βL crystallin (chaperone activity),βL crystallin,slightly lower than the HG peptide
STSLSPFYLRPPSFLRAP,effect on the fibrillization of γD crystallin,γD crystallin [1],strongest effect
same,effect on the thermal aggregation of βL crystallin (chaperone activity),βL crystallin,weakest effect
LTITSSLS [Peptide 66],"absorbance at λ=450 nm, interaction with CS",[2],absorbance maxima
same,"absorbance at λ=450 nm, interaction with γD crystallin",γD crystallin [3],maximum absorbances
same,"absorbance at λ=450 nm, interaction with ADH",[4],Maximum absorbances
same,"absorbance at λ=450 nm, interaction with βH crystallin",bovine βH crystallin,Maximum absorbances
same,protein pin assay result with target protein beta amyloid,beta amyloid,positive
"αB crystallin: wild type recombinant human αB crystallin, a small heat shock protein and molecular chaperone",effect on the fibrillization of γD crystallin,γD crystallin [1],weakest effect
same,Δfluorescence (γD crystallin),"γD crystallin [1]; ThioflavinT, 50° C. for 72 hours, no chaperone 888,803,840","1,079,141,056"
same,Δfluorescence (Aβ),Aβ,"318,471,040"
